Where a chain is given by its changes, count along the chain named. Values belong to the binder of their own block, whether it stands above or below them.
Target: 人Claudin18.2 (human) (UniProt P56856)
Test: cell-based or functional assay

活细胞比率 (CDC, 20%人血浆, 30min, 293T-hClaudin18.2细胞; 无抗体对照81.34%): 34%
B1: 鼠单抗1B10 (antibody, V domains shown)
VH: QVQLKESGPGLVAPSQSLSITCTVSGFSLTSYVINWVRQPPGKGLEWLGVIWTGGGTNYNSALKSRLSISKDTSKSQVFLKMNSLQTDDTARYYCARGAYYGNAMDYWGQGTSVTVSS
VL: DIVMTQSPSSLTVTAGEKVTMSCKSSQSLLNSGNQKNYLTWYQQKPGQPPKLLIYWAATRESGVPDRFTGSGSGTDFTLTISSVQAEDLAVYYCQNDYSYPFTFGSGTKLEIK

活细胞比率 (CDC, 20%人血浆, 30min, 293T-hClaudin18.2细胞; 无抗体对照81.34%): 3.94%
B2: 鼠单抗1A6 (antibody, V domains shown)
VH: QVQLQQPGAELVKPGASVKLSCKASGYTFTSYWMQWVKQRPGQGLEWIGMTHPNSGGTNYNEKFKSKATLTVDKSSSTAYMQLSSLTSEDSAVYYCARLGRGNAMDYWGQGTSVTVSS
VL: B1 VL with A58S, E61K, A90T, V91I
